Test [1] has as its target T1, human TROP2 (Trophoblast cell-surface antigen 2) (human, UniProt P09758 27-323).
T1 construct: whole, on cells; also called TACSTD2; h-TROP2
T1 sequence (looked up): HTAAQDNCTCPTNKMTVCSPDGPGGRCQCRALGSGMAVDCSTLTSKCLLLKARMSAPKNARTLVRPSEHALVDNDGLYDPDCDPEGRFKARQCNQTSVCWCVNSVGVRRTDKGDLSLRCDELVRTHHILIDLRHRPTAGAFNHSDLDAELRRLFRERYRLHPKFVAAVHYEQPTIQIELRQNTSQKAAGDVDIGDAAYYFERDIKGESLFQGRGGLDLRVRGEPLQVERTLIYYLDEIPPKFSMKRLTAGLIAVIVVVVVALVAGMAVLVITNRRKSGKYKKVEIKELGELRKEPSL
Briefly: flow cytometry whole cell binding, SKBR3 cells.

Test [2] concerns the target T1, human TROP2 (Trophoblast cell-surface …). The experiment in a line: flow cytometry whole cell binding, NCI-H441 cells.
For test [3] the target is unchanged. Briefly: cell-based or functional assay.
For test [4] the target is unchanged. Briefly: flow cytometry whole cell binding, HCC202 cells.
Test [5] shares this target. Briefly: flow cytometry whole cell binding, h-TROP2 stably transfected CHO cells. The procedure: Binding of bivalent anti-TROP2 VHH-Fc clones to human TROP2 in human TROP2 stably transfected CHO cells (CHO-h-TROP2 stable cells) were determined by flow cytometry whole cell binding (WCB) assays. Briefly, antibodies were incubated at different concentrations with CHO-h-TROP2 stable cells (0.2×10⁶/ml) in 96-well plates (100 μl/well) in FACS buffer for 30 min. After washing, Alexa Fluor 488 conjugated anti-human IgG Fc secondary antibody was added, and incubated for 30 min. After washing, MFI was measured using CytoFlex by gating live cell population with FITC channel. EC50 of binding was calculated using GraphPad Prism7.0.

Test [6] concerns the target T2, human TROP2 (Trophoblast cell-surface antigen 2) (human, UniProt P09758 27-323).
T2 chain: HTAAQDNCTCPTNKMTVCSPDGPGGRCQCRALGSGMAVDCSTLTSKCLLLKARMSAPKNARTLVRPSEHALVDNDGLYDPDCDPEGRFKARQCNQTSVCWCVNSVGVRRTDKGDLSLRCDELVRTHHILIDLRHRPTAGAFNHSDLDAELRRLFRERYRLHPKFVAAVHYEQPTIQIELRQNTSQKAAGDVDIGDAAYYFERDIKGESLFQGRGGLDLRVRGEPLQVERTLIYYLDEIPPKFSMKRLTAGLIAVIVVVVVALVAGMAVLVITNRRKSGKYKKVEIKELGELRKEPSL
The experiment in a line: flow cytometry whole cell binding, SKBR3.

The next test has as its target T3, mouse TROP2 (mouse, UniProt Q8BGV3 25-317).
T3 construct: whole, on cells; also called m-TROP2
T3 sequence (looked up): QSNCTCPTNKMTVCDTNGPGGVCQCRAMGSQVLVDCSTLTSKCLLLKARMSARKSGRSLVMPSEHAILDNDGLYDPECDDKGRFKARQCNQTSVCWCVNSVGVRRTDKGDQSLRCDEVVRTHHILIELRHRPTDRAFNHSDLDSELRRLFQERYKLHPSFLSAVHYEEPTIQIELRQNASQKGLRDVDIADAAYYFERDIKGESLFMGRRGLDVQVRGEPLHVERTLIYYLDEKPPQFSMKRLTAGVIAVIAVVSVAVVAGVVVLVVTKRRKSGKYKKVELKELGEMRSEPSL
Briefly: flow cytometry whole cell binding, m-TROP2 stably transfected 293T cells.

The target of test [7] is T4, human HER2-Domain II-his protein (human, UniProt P04626 196-319).
T4 construct: also called HER2 domain II fragment (Ser196-Asn319); not shown: his tag
The experiment in a line: ELISA, plate coated with human HER2-Domain II-his. The procedure: (§1) X axis is values of antibody concentration in nanomolar. Y axis is values of OD at 450 nm.
(§2) Binding of anti-HER2 VHH-Fc clones to different domains of human HER2 ECD was determined by ELISA binding assays using his-tagged HER2 domain fragments. Human HER2 domain IV fragment (Pro489-Cys630) was purchased from Sinobiological, domain II+III+IV fragment (Ser196-Cys630) & domain II fragment (Ser196-Asn319) were made.

Test [8] addresses T5, human HER2 (human epidermal growth factor receptor 2) (human, UniProt P04626 23-1255).
T5 construct: whole, on cells; also called ERBB2; h-HER2
Briefly: flow cytometry whole cell binding, CHO-h-HER2 stable cells. How it is done: (§3) Binding of bivalent anti-HER2 VHH-Fc clones to human HER2 stably transfected CHO cells (CHO-h-HER2 stable cells) was determined by flow cytometry whole cell binding (WCB) assays. Briefly, antibodies were incubated at different concentrations with CHO-h-HER2 stable cells (0.2×10⁶/ml) in 100 μl/well in 96-well plates in FACS buffer (PBS with 1.0% FBS) for 30 min. After washing, Alexa Fluor 488 conjugated anti-human IgG Fc secondary antibody (Alexa Fluor® 488 AffiniPure Goat Anti-Human IgG, Fcγ fragment specific, Jackson labs, 1:750 dilution) was added, and incubated for 30 min. After washing, Median Fluorescence Intensity (MFI) was measured using CytoFlex (Beckman Coulter) by gating live cell population with FITC channel. Whole cell binding of VHH-Fc clones to endogenously expressed HER2 in human cancer cells was also determined using N87 (Stomach cancer cell line) and SKBR3 (Breast cancer cell line) cells, both of which are cancer cells with high HER2 expressions.

Test [9] has as its target T5, human HER2 (human epidermal growth …). The experiment in a line: cell-based or functional assay.
The target is the same in test [10]. The experiment in a line: cell-based or functional assay. The source holds these as a separate data set.
The target is the same in test [11]. The experiment in a line: flow cytometry whole cell binding, N87 cells (endogenous HER2). How it is done: as §3
Test [12] has as its target T6, human HER2-Domain IV-his protein (human, UniProt P04626 489-630).
T6 construct: also called HER2 domain IV fragment (Pro489-Cys630); not shown: his tag
Briefly: ELISA, plate coated with human HER2-Domain IV-his. How it is done:
as §1, §2

B1: 1H11-hv8_Fc (antibody, V domains shown)
VH: EVQLVESGGGLVQPGGSLRLSCAASGGTFSRYIMGWFRQAPGKEREFVSTISGSGGSTYYADSVKGRFTISRDNSKNTLYLQMNSLRAEDTAVYYCASTFYSTTYVAQRDARDYAYWGQGTQVTVSS
notes: monospecific bivalent VHH-Fc with C220S mutation in the hinge region; also called monospecific anti-TROP2 (1H11-hv8)
In turn, B1 yielded an EC50 in test [1] of 141 nM. The molecule also gave a concentration giving a half-maximal response (EC50) in test [2] of 1.6 nM. Besides, in [3], the “IC50, nM, Killing of HCC202 cells by 2nd Ab-MMAE” value was found to be 0.2 nM; the “IC50, nM, Killing of NCI-H441 cells by 2nd Ab-MMAE” value was found to be 0.15 nM; the “IC50, nM, Killing of SKBR3 cells by 2nd Ab-MMAE” value amounted to 0.48 nM. The half-maximal effective concentration (EC50) in test [4] is 3.5 nM.

B2: anti-TROP2 VHH-Fc clone Alpaca 3H9 (antibody, human IgG1, V domains shown)
VH: LVQLVESGGGLVQAGGSQRLSCAVSGRAFAYYAMGWFRQAPGKEREFVAAIAGSGDSTYYADSVKGRFTISRDYAKNTNYLQMNSLKPEDTAVYYCAAAGGTFYSGTAVATRSSQYDYWGQGTQVTVSS
notes: domain: hinge region and constant domains (CH2 and CH3); bivalent VHH-Fc, human IgG1 Fc; also called 3H9-Fc
Consider B2, for which the 50% effective concentration (EC50) in [5] was 1.46 nM; in [6], 1.76 nM; in the test with mouse TROP2, 760 nM.

B3: anti-HER2 VHH-Fc clone 11D5 (bivalent VHH-Fc of Example 2) (antibody, V domains shown)
VH: QVQLVESGGGVVQPGRSLRLSCAASGSTFSSLAMHWVRQAPGKERELVAAISYSGGYTYYADSVKGRFTISRDNSKNTLYLQMNSLRAEDTAVYYCAASSIFIGAYDYWGQGTLVTVSS
notes: not shown: human IgG1 Fc region: hinge region and constant domains CH2 and CH3
On to B3, for which the binding result in test [7] and in test [12] was “no binding” each time. Besides, the EC50 in test [8] amounted to 2.09 nM; in test [11] it was 3.14 nM. Besides, the “IC50 (nM) in AU-565 cells, killing in the presence of PBMCs” value in [9] was found to be 0.38 nM. Moreover, the “IC50 (nM) in SKBR3 cells, killing in the presence of PBMCs” value in test [9] was found to be 0.29 nM. Further, the “IC50 (nM) in AU-565 cells, anti-proliferation” value in test [10] was 0.84 nM.

Source of the values: US20260176373A1 (BRIGHT BIOLOGICS, published 2026).
